Broadly, the Kd is the constant that tells how readily two partners part at equilibrium.

Data on 3 molecules can be found in article PMC9813255 (2023).

B2: full-length human PQBP5 (His-tag fusion protein) (natural protein)
chain: MQVSSLNEVKIYSLSCGKSLPEWLSDRKKRALQKKDVDVRRRIELIQDFEMPTVCTTIKVSKDGQYILATGTYKPRVRCYDTYQLSLKFERCLDSEVVTFEILSDDYSKIVFLHNDRYIEFHSQSGFYYKTRIPKFGRDFSYHYPSCDLYFVGASSEVYRLNLEQGRYLNPLQTDAAENNVCDINSVHGLFATGTIEGRVECWDPRTRNRVGLLDCALNSVTADSEINSLPTISALKFNGALTMAVGTTTGQVLLYDLRSDKPLLVKDHQYGLPIKSVHFQDSLDLILSADSRIVKMWNKNSGKIFTSLEPEHDLNDVCLYPNSGMLLTANETPKMGIYYIPVLGPAPRWCSFLDNLTEELEENPESTVYDDYKFVTKKDLENLGLTHLIGSPFLRAYMHGFFMDIRLYHKVKLMVNPFAYEEYRKDKIRQKIEETRAQRVQLKKLPKVNKELALKLIEEEEEKQKSTWKKKVKSLPNILTDDRFKVMFENPDFQVDEESEEFRLLNPLVSKISEKRKKKLRLLEQQELREKEEEEEPEGKPSDAESSESSDDEKAWVEEVRKQRRLLQQEEKVKRQERLKEDQQTVLKPQFYEIKAGEEFRSFKDSATKQKLMNKTLEDRLKIEAKNGTLSVSDTTVGSKQLTFTLKRSEQQKKQQEAEKLHRQERKRLRRSAGHLKSRHKRGRSFH
B3: human fibrillarin (His-tag fusion protein) (natural protein)
chain: MKPGFSPRGGGFGGRGGFGDRGGRGGRGGFGGGRGRGGGFRGRGRGGGGGGGGGGGGGRGGGGFHSGGNRGRGRGGKRGNQSGKNVMVEPHRHEGVFICRGKEDALVTKNLVPGESVYGEKRVSISEGDDKIEYRAWNPFRSKLAAAILGGVDQIHIKPGAKVLYLGAASGTTVSHVSDIVGPDGLVYAVEFSHRSGRDLINLAKKRTNIIPVIEDARHPHKYRMLIAMVDVIFADVAQPDQTRIVALNAHTFLRNGGHFVISIKANCIDSTASAEAVFASEVKKMQQENMKPQEQLTLEPYERDHAVVVGVYRPPPKVKN

The target in one test is T1, GST-Htt-110Q.
T1 chain: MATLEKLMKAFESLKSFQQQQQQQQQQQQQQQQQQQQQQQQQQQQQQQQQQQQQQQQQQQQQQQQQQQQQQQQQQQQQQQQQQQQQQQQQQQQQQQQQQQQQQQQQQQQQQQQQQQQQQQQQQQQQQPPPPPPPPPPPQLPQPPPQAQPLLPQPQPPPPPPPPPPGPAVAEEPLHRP
The test can be described thus: SPR.

Test [1] addresses B3. The test can be described thus: SPR; PQBP5 analyte, fibrillarin immobilized. A general note: In SPR one partner is held on a chip, and binding of the other changes the refractive index at the surface.
Test [2] has as its target T2, human nucleolin (His-tag fusion protein) (human, UniProt P19338 1-710). Put plainly: SPR; PQBP5 analyte, nucleolin immobilized.
A further test addresses T3, GST-Atxn1-33Q (UniProt P54253 1-815).
T3 chain: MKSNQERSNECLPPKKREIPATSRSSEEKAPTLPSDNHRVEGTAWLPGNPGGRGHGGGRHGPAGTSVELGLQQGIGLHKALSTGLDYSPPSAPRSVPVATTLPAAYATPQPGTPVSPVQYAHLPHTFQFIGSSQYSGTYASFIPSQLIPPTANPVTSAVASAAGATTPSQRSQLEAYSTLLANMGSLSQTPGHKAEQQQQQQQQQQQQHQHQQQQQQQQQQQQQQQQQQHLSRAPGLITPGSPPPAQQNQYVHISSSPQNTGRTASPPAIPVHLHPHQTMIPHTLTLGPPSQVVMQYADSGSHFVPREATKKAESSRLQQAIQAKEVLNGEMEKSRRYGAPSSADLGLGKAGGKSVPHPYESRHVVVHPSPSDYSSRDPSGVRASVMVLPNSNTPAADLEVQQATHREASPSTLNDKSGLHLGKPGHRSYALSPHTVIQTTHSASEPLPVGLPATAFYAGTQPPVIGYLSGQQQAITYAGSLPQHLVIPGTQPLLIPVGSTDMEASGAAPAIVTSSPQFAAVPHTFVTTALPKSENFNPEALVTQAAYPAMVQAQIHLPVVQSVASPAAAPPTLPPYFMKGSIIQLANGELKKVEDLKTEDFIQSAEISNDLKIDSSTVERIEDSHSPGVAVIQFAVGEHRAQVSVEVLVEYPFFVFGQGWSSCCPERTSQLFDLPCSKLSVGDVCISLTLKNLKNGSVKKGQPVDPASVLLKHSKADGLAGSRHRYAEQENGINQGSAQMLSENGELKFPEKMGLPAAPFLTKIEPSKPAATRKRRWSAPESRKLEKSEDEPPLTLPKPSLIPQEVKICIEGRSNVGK
The test can be described thus: SPR.

The next test concerns the target T4, GST-Atxn1-86Q (UniProt P54253 1-815).
T4 chain: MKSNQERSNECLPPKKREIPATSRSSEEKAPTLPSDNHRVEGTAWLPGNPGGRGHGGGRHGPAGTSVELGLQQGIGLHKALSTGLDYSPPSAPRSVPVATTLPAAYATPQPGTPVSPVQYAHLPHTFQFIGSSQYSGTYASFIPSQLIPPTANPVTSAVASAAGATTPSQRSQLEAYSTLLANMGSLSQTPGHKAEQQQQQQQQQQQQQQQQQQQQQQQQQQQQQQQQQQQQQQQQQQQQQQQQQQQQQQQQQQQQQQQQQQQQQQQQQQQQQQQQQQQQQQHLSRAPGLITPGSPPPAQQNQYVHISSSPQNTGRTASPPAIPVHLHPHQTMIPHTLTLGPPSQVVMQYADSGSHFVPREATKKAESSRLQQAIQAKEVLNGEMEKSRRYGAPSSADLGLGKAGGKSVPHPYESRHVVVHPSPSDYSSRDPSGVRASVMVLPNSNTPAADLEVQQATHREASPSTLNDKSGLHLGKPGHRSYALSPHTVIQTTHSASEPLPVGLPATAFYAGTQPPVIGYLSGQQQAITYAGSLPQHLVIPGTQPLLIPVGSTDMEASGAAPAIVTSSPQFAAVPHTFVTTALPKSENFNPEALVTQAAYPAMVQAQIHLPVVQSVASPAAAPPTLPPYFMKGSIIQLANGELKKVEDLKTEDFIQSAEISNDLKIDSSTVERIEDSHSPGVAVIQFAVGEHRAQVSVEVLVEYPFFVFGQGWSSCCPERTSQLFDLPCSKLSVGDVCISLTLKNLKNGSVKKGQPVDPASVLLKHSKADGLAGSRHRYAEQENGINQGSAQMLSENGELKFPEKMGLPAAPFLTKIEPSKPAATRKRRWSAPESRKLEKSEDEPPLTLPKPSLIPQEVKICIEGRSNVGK
The test can be described thus: SPR.

The target in test [3] is B2. The test can be described thus: SPR; fibrillarin analyte, PQBP5 immobilized.
The target in test [4] is T2, human nucleolin (His-tag fusion protein). Put plainly: SPR; fibrillarin analyte, nucleolin immobilized.

T2 sequence (P19338 whole entry, the tested form may be a part): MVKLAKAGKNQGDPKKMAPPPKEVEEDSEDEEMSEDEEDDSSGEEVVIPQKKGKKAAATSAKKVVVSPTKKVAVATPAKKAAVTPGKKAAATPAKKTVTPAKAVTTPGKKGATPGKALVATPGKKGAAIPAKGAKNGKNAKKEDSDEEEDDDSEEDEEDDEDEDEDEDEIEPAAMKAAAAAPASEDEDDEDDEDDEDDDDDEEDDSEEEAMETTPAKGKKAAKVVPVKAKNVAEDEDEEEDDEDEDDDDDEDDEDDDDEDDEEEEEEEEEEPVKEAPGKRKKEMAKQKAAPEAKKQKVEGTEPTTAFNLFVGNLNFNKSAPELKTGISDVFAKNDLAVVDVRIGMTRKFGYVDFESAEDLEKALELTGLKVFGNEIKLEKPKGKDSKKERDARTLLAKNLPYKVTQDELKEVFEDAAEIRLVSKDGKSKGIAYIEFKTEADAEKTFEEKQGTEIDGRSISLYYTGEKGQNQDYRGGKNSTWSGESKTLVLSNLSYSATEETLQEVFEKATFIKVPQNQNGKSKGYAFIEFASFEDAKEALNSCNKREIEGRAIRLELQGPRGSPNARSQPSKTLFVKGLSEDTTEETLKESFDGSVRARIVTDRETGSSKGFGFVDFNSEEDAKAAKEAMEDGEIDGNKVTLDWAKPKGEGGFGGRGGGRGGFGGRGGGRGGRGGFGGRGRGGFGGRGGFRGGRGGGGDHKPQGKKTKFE

B1: PQBP5-Δ1 (protein)
chain: TYQLSLKFERCLDSEVVTFEILSDDYSKIVFLHNDRYIEFHSQSGFYYKTRIPKFGRDFSYHYPSCDLYFVGASSEVYRLNLEQGRYLNPLQTDAAENNVCDINSVHGLFATGTIEGRVECWDPRTRNRVGLLDCALNSVTADSEINSLPTISALKFNGALTMAVGTTTGQVLLYDLRSDKPLLVKDHQYGLPIKSVHFQDSLDLILSADSRIVKMWNKNSGKIFTSLEPEHDLNDVCLYPNSGMLLTANETPKMGIYYIPVLGPAPRWCSFLDNLTEELEENPESTVYDDYKFVTKKDLENLGLTHLIGSPFLRAYMHGFFMDIRLYHKVKLMVNPFAYEEYRKDKIRQKIEETRAQRVQLKKLPKVNKELALKLIEEEEEKQKSTWKKKVKSLPNILTDDRFKVMFENPDFQVDEESEEFRLLNPLVSKISEKRKKKLRLLEQQELREKEEEEEPEGKPSDAESSESSDDEKAWVEEVRKQRRLLQQEEKVKRQERLKEDQQTVLKPQFYEIKAGEEFRSFKDSATKQKLMNKTLEDRLKIEAKNGTLSVSDTTVGSKQLTFTLKRSEQQKKQQEAEKLHRQERKRLRRSAGHLKSRHKRGRSFH
modifications: Delta number assigned from the order of the constructs in the methods; initiator Met from the primer and tag omitted. Exon 1 with the polyQ tract (18-38, 21Q) repeated to 110Q, as in the assayed protein name. The plasmid is called 103Q, so the repeat count is ambiguous. GST omitted.
Turning to B1, binding in the test with GST-Htt-110Q was characterised by a dissociation constant (Kd) of 2.11 nM.

As for B2, the Kd was 745 nM in test [1], 0.447 nM in test [2], 0.342 nM with GST-Atxn1-33Q and 0.179 nM with GST-Atxn1-86Q.

For the molecule B3, the Kd in test [3] came out at 10 nM; in test [4] it was 2.78 nM.
